Assay results taken from patent publication US20140072613A1, “Compositions and Methods for Treating Cutaneous Scarring” (priority 2012, published 2014).

How the values were obtained:
Assay in all cases: biochemical
Type in all cases: biochemical
[1] = biological target: 266 human kinases (Homo sapiens, UniProt P00533, L858R); settings: EGFR(L858R)(h); 100 μM
In short: (§1)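 Steps: kinase transfers radiolabelled phosphate from ATP onto a positively charged substrate; the substrate is trapped on a negatively charged filter; bound radioactivity is counted by scintillation and compared with uninhibited (100%) activity.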

[2] = biological target: 266 human kinases (Homo sapiens, UniProt P08069); settings: IGF-1R(h), 100 μM
In short: as §1

[3] = biological target: 266 human kinases (Homo sapiens, UniProt P10721); settings: cKit(h); 100 μM
In short: as §1

[4] = biological target: 266 human kinases (Homo sapiens, UniProt P48730); settings: CK1δ(h); 100 μM
In short: as §1

[5] = biological target: 266 human kinases (Homo sapiens, UniProt P51617); settings: IRAK1(h); 100 μM
In short: as §1

[6] = biological target: 266 human kinases (Homo sapiens, UniProt Q00535); settings: 100 μM
In short: as §1

[7] = biological target: 266 human kinases (Homo sapiens, UniProt Q14289); settings: Pyk2 (h); 100 μM
In short: as §1

[8] = biological target: 266 human kinases (Homo sapiens, UniProt Q16566); settings: CaMKIV(h); 100 μM
In short: as §1

[9] = biological target: 266 human kinases (Homo sapiens, UniProt Q7KZI7); settings: PAR-1Bα(h); 100 μM
In short: as §1

[10] = biological target: T1, 266 human kinases (Homo sapiens, UniProt Q8TF76); settings: Haspin(h); 100 μM
T1 sequence (Q8TF76 1-798): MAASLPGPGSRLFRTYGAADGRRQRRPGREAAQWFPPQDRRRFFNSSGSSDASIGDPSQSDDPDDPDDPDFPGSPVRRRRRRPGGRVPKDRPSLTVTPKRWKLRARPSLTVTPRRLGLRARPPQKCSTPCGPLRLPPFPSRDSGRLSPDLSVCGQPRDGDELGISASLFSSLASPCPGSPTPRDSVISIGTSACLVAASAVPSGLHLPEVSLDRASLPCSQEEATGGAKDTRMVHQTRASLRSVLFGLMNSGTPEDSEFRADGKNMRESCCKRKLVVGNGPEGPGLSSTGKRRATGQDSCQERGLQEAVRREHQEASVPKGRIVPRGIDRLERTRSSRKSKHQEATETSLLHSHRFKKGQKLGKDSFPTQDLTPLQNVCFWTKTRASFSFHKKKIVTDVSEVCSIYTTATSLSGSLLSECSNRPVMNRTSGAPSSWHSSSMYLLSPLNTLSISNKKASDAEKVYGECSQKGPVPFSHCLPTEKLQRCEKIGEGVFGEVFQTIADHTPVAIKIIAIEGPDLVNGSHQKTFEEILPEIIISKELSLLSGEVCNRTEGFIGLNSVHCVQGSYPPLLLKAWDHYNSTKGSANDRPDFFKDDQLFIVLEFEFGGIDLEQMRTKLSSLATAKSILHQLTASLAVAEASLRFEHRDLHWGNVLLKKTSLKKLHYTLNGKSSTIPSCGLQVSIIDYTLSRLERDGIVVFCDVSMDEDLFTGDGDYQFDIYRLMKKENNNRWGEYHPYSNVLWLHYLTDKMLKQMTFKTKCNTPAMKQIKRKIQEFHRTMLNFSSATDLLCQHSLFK
In short: as §1

[11] = biological target: T2, 266 human kinases (Homo sapiens, UniProt Q96BR1); settings: SGK3(h); 100 μM
T2 sequence (Q96BR1 1-496): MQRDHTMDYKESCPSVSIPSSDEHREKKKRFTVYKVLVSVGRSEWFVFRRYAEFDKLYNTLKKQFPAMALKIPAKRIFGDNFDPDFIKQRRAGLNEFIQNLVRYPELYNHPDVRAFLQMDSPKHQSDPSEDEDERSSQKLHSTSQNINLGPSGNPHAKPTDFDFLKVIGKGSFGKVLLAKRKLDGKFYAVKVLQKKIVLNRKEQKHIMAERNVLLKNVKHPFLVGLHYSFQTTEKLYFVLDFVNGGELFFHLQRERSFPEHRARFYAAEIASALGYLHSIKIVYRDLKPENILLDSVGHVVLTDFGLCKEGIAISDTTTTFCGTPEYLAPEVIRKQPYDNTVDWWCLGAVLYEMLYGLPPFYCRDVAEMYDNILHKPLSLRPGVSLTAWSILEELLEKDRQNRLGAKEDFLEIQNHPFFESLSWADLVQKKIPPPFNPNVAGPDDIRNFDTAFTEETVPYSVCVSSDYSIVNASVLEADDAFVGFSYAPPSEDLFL
In short: as §1

Sequence of 266 human kinases (Homo sapiens, UniProt Q00535) (Q00535 whole entry): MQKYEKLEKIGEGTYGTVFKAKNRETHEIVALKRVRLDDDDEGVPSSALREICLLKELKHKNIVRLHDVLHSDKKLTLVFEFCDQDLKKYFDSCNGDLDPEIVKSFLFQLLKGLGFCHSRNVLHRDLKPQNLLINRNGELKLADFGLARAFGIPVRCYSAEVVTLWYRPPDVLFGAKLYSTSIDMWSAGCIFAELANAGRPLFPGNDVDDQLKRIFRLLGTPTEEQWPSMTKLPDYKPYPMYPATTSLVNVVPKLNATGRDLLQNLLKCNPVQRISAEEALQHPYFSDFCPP
Sequence of 266 human kinases (Homo sapiens, UniProt Q14289) (Q14289 whole entry): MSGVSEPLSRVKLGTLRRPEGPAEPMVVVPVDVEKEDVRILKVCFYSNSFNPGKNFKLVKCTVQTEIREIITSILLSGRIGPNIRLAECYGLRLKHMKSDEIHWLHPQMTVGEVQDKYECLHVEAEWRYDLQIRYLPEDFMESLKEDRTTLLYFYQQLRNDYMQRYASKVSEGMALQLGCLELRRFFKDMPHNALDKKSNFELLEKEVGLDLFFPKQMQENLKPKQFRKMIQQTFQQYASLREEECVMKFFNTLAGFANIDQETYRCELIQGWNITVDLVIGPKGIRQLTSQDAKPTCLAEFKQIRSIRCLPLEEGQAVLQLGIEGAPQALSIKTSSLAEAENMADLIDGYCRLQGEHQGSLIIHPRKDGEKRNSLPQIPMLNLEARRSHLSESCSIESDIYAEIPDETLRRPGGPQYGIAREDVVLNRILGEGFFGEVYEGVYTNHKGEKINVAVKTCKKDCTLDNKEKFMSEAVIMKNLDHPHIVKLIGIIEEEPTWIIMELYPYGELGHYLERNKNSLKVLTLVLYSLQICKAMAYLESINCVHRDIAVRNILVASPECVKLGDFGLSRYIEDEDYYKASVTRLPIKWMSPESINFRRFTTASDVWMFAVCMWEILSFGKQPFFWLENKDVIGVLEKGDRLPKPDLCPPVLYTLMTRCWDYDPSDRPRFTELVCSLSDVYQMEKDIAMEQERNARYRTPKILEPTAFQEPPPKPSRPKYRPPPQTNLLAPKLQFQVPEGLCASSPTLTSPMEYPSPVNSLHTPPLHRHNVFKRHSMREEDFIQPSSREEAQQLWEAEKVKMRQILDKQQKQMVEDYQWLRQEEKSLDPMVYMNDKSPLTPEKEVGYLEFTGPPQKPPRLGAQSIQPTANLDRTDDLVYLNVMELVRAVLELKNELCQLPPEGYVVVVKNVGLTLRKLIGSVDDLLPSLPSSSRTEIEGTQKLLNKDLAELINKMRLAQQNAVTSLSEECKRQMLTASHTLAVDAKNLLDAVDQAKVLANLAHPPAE
Sequence of 266 human kinases (Homo sapiens, UniProt Q7KZI7) (Q7KZI7 whole entry): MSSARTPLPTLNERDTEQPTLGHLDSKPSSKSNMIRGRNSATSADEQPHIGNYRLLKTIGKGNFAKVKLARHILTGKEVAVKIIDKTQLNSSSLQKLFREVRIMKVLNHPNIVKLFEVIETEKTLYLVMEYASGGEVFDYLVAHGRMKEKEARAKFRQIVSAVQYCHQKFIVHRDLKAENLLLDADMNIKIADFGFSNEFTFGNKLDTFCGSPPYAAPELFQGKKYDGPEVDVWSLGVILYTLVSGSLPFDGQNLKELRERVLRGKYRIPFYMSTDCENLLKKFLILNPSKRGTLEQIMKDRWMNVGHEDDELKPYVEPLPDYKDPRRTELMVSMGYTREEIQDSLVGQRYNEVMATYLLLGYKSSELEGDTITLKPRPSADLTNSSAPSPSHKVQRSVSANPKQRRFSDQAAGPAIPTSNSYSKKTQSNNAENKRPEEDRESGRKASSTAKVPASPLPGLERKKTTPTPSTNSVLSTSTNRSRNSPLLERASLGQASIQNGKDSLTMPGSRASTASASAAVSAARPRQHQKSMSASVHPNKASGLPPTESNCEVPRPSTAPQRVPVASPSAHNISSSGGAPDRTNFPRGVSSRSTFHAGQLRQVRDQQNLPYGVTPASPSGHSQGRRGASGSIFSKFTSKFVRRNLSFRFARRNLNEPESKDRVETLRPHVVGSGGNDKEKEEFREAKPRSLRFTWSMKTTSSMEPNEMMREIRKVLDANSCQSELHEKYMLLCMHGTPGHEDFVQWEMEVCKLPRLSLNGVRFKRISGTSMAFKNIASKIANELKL
Sequence of 266 human kinases (Homo sapiens, UniProt Q16566) (Q16566 whole entry): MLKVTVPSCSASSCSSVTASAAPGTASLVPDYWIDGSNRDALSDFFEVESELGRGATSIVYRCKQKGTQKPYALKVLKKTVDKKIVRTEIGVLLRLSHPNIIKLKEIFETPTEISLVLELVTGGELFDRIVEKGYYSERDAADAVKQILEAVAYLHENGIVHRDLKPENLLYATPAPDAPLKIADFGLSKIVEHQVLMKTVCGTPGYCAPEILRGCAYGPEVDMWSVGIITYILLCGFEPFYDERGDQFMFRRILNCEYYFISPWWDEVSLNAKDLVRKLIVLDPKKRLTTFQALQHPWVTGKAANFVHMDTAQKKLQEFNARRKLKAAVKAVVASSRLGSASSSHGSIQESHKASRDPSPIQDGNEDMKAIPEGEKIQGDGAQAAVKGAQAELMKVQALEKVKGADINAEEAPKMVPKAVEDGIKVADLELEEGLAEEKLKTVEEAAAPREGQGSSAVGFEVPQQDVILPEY
Sequence of 266 human kinases (Homo sapiens, UniProt P48730) (P48730 whole entry): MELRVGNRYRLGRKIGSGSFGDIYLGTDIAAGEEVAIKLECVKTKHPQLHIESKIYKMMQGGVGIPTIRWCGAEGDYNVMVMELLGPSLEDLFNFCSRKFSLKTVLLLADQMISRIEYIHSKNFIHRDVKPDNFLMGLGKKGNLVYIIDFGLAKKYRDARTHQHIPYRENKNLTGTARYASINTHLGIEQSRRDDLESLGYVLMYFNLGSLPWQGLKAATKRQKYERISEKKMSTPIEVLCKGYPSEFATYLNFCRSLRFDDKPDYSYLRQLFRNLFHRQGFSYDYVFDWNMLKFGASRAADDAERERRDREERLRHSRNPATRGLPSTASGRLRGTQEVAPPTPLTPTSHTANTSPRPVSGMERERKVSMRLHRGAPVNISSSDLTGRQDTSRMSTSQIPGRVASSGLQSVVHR
Sequence of 266 human kinases (Homo sapiens, UniProt P51617) (P51617 whole entry): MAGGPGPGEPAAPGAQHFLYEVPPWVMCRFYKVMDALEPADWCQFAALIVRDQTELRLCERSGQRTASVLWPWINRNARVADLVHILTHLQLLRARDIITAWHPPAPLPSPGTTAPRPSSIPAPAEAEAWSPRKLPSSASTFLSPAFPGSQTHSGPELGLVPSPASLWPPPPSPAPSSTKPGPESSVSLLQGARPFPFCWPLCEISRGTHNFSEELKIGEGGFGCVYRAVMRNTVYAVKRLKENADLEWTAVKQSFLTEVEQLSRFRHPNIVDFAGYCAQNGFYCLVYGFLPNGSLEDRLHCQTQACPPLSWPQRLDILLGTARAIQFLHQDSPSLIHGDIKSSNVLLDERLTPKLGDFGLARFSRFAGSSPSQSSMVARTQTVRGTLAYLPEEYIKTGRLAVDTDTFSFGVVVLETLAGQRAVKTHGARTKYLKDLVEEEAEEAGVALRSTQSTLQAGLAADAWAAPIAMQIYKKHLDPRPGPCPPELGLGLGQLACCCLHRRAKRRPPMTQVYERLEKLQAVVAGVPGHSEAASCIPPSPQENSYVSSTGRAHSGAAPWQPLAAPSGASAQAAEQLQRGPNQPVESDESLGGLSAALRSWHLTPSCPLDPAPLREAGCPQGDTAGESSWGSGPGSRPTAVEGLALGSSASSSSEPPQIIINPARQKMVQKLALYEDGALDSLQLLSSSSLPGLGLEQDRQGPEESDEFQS

HRRIKAWLKKIKALARQLGVAA (mammal) [MMI-0500]
% activity [1]: 26%
% activity ([2]; activated): 45%
% activity [3]: 45%
% activity [4]: 78%
% activity [5]: 5%
% activity ([6]; CDK5/p25(h)): 66%
% activity ([6]; CDK5/p35(h)): 59%
% activity [7]: 46%
% activity [8]: -1%
% activity [9]: 97%
% activity [10]: 25%
% activity [11]: −3%

YARAAARQARAKALNRQLGVA (mammal) [MMI-0200]
% activity [1]: 120%
% activity ([2]; activated): 94%
% activity [2]: 49%
% activity [3]: 110%
% activity [4]: 92%
% activity [5]: 101%
% activity ([6]; CDK5/p25(h)): 97%
% activity ([6]; CDK5/p35(h)): 92%
% activity [7]: 127%
% activity [8]: 71%
% activity [9]: 110%
% activity [10]: 71%
% activity [11]: 58%
